Key:
[1] = target: ComR of Streptococcus mutans UA159 (Streptococcus mutans UA159); assay: ITC; XIP 600 μM injected into ComR 20 μM; 20 mM Tris pH 7.5, 100 mM NaCl, 1 mM β-ME with matched DMSO; VP-ITC, 25 °C; one-site model
[2] = target: ComR of Streptococcus mutans UA159 (Streptococcus mutans UA159)
[3] = target: ComR of Streptococcus mutans UA159 (Streptococcus mutans UA159); assay: ITC; paratox 240 μM injected into ComR 20 μM; 20 mM Tris pH 7.5, 100 mM NaCl, 1 mM β-ME; VP-ITC, 25 °C; one-site model

Which results are given for “XIP (sigX-inducing peptide) of Streptococcus mutans UA159”?
Kd [1]: 3600 nM; stoichiometry N [1]: 1.01

How did the PsigX-luxAB reporter in S. mutans with MGAS315 prx in trans, 200 nM XIP, against the empty vector [2] turn out when “paratox (Prx) of Streptococcus pyogenes MGAS315 (from UniProt Q4VUT1 1-60) (natural protein)” was run?
The PsigX-luxAB reporter in S. mutans with MGAS315 prx in trans, 200 nM XIP, against the empty vector was > 2 fold.

What about the Kd [3] of the same substance?
Its Kd is 133 nM.

What about the stoichiometry N [3] of the same substance?
The stoichiometry N was 0.95.

With “paratox of Streptococcus pyogenes MGAS5005, prophage MGAS5005.3 (prx3) (from UniProt Q4VUT1 1-60) (natural protein)” as the substance, how does the PsigX-luxAB reporter in S. mutans with MGAS5005 prx3 in trans, 200 nM XIP, against the empty vector [2] read?
Its PsigX-luxAB reporter in S. mutans with MGAS5005 prx3 in trans, 200 nM XIP, against the empty vector is > 2 fold.

With “paratox of Streptococcus pyogenes MGAS8232 (from UniProt Q4VUT1 1-60) (natural protein)” as the substance, how does the PsigX-luxAB reporter in S. mutans with MGAS8232 prx in trans, 200 nM XIP, against the empty vector [2] read?
Its PsigX-luxAB reporter in S. mutans with MGAS8232 prx in trans, 200 nM XIP, against the empty vector is > 2 fold.

Reference: article PMC6224593
